Measured values: patent US20140274782A1, “AFFINITY REAGENTS AND METHODS FOR DETECTION, PURIFICATION, AND PROTEOMIC ANALYSIS OF METHYLATED PROTEINS” (The Board of Trustees of the Leland Stanford Junior …, priority 2013, published 2014)
Blank lines part the entries; values can stand above or below the molecule they belong to.

What was measured:
3×MBT domain of L3MBTL1 = assay: Triple SILAC pull-down, 3xMBT/3xMBTD355N ratio (cytoplasmic, nuclear and chromatin fractions of 293T cells); format: binding, human; details: SILAC ratio, pull-down 3xMBT vs 3xMBTD355N; for 3xMBT/D355N UNC Heavy: experiment with UNC0638 in heavy SILAC media; for 3xMBT/D355N UNC Light: experiment with UNC0638 in light SILAC media;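 as to all read-outs here: proteins quantified with MaxQuant, requiring at least two unique peptides and quantification in both label directions, normalized to the mean of proteins from a digested loading control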
G9a and GLP = molecular target: T1, G9a and GLP (Homo sapiens, UniProt Q96KQ7+Q9H9B1); assay: Triple SILAC pull-down after UNC0638 treatment of 293T cells, DMSO/UNC0638 ratio of protein captured by 3×MBT; format: cell-based; set-up: endogenous in cells; host or cells: HEK 293T; details: for Relative to UNC0638 UNC Heavy / Relative to UNC0638 UNC Light: SILAC ratio DMSO/UNC0638 of protein pulled down with 3xMBT; for Relative to UNC0638 UNC Heavy: UNC0638 in heavy SILAC media; for Relative to UNC0638 UNC Light: UNC0638 in light SILAC media; for Relative to UNC0638 Average: average of UNC Light and UNC Heavy experiments;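 as to all read-outs here: mass spectrometry (Q-Exactive) SILAC quantitation, DMSO/UNC0638 ratio computed after subtracting 3×MBTD355N mutant pull-down background, only proteins with at least twofold 3×MBT over mutant signal considered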
T1 sequence (Q96KQ7 2-1210 limits assumed): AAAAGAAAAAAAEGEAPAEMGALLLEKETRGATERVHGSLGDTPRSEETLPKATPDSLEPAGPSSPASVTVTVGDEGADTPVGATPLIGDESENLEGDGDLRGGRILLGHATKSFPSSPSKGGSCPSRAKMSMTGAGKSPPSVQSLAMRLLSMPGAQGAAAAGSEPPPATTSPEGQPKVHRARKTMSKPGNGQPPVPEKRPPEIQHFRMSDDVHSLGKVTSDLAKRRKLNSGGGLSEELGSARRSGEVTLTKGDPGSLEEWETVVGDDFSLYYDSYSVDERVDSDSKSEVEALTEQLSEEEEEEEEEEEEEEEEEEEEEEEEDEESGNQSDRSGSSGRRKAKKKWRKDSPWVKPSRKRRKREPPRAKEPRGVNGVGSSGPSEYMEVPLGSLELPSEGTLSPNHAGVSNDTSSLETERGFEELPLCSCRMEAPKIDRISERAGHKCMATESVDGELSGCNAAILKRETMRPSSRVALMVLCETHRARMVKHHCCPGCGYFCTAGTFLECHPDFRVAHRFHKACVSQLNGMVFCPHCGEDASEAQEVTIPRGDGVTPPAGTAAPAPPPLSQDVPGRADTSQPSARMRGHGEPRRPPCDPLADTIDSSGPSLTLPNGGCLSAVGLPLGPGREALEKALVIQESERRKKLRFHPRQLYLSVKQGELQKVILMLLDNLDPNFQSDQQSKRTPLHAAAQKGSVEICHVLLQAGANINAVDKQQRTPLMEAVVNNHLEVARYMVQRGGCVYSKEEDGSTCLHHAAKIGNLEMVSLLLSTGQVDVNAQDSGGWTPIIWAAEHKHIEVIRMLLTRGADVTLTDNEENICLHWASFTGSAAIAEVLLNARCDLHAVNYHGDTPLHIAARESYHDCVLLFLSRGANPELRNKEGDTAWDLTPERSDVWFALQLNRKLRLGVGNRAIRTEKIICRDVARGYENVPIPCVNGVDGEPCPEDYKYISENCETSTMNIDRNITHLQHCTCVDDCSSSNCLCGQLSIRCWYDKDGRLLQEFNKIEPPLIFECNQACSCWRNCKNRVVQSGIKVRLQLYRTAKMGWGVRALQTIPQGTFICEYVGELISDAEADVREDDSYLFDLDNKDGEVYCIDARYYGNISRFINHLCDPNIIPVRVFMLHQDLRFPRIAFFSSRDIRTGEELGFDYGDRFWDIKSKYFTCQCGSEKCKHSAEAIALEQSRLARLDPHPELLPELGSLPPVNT
T1 sequence (Q9H9B1 2-1298 limits assumed): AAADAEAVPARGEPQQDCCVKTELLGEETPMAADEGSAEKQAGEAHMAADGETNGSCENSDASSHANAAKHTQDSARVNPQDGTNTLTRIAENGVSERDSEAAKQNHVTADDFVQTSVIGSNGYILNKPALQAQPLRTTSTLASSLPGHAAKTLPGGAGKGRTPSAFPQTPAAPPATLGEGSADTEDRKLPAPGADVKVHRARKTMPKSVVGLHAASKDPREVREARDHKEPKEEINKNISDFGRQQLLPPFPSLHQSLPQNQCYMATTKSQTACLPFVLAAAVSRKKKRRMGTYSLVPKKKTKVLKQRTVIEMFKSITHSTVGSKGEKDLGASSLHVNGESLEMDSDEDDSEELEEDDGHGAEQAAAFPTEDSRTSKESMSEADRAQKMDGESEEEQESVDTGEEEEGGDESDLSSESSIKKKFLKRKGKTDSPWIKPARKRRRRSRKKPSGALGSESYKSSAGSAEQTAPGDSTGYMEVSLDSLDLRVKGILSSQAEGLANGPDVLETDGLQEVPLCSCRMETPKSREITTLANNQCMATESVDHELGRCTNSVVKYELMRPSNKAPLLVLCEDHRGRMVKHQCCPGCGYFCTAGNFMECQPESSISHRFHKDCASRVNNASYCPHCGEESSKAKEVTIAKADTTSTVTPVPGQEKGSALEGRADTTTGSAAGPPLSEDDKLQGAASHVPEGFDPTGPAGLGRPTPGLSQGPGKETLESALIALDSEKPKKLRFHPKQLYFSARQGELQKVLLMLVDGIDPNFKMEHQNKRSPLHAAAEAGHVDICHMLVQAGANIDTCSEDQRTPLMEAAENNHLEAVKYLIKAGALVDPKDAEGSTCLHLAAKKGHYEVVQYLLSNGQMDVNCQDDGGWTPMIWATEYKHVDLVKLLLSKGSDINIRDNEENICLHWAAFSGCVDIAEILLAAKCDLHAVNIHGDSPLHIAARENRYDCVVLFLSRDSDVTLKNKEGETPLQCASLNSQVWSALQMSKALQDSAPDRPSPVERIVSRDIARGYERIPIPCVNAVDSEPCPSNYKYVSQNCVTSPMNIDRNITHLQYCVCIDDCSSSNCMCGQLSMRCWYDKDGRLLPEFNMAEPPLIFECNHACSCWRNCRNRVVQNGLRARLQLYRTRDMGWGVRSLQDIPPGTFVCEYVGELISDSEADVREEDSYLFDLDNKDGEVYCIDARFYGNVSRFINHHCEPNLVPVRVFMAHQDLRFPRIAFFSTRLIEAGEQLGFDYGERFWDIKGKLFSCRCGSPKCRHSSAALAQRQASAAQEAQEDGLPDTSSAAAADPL

Relative to UNC0638 UNC Heavy (G9a and GLP): 0.01 log base 2
Relative to UNC0638 UNC Light (G9a and GLP): 0.35 log base 2
Relative to UNC0638 Average (G9a and GLP): 0.18 log base 2
B1: DAZAP1 (protein, UniProt Q96EP5 1-407, looked up)
DAZ-associated protein 1: MNNSGADEIGKLFVGGLDWSTTQETLRSYFSQYGEVVDCVIMKDKTTNQSRGFGFVKFKDPNCVGTVLASRPHTLDGRNIDPKPCTPRGMQPERTRPKEGWQKGPRSDNSKSNKIFVGGIPHNCGETELREYFKKFGVVTEVVMIYDAEKQRPRGFGFITFEDEQSVDQAVNMHFHDIMGKKVEVKRAEPRDSKSQAPGQPGASQWGSRVVPNAANGWAGQPPPTWQQGYGPQGMWVPAGQAIGGYGPPPAGRGAPPPPPPFTSYIVSTPPGGFPPPQGFPQGYGAPPQFSFGYGPPPPPPDQFAPPGVPPPPATPGAAPLAFPPPPSQAAPDMSKPPTAQPDFPYGQYAGYGQDLSGFGQGFSDPSQQPPSYGGPSVPGSGGPPAGGSGFGRGQNHNVQGFHPYRR
3xMBT/D355N UNC Heavy (3×MBT domain of L3MBTL1): 2.92 log base 2
3xMBT/D355N UNC Light (3×MBT domain of L3MBTL1): 2.10 log base 2

Relative to UNC0638 UNC Heavy (G9a and GLP): −0.03 log base 2
Relative to UNC0638 UNC Light (G9a and GLP): 0.39 log base 2
Relative to UNC0638 Average (G9a and GLP): 0.18 log base 2
B2: AMOT (protein, UniProt Q4VCS5 1-1084, looked up)
Angiomotin: MRNSEEQPSGGTTVLQRLLQEQLRYGNPSENRSLLAIHQQATGNGPPFPSGSGNPGPQSDVLSPQDHHQQLVAHAARQEPQGQEIQSENLIMEKQLSPRMQNNEELPTYEEAKVQSQYFRGQQHASVGAAFYVTGVTNQKMRTEGRPSVQRLNPGKMHQDEGLRDLKQGHVRSLSERLMQMSLATSGVKAHPPVTSAPLSPPQPNDLYKNPTSSSEFYKAQGPLPNQHSLKGMEHRGPPPEYPFKGMPPQSVVCKPQEPGHFYSEHRLNQPGRTEGQLMRYQHPPEYGAARPAQDISLPLSARNSQPHSPTSSLTSGGSLPLLQSPPSTRLSPARHPLVPNQGDHSAHLPRPQQHFLPNQAHQGDHYRLSQPGLSQQQQQQQQQHHHHHHHQQQQQQQPQQQPGEAYSAMPRAQPSSASYQPVPADPFAIVSRAQQMVEILSDENRNLRQELEGCYEKVARLQKVETEIQRVSEAYENLVKSSSKREALEKAMRNKLEGEIRRMHDFNRDLRERLETANKQLAEKEYEGSEDTRKTISQLFAKNKESQREKEKLEAELATARSTNEDQRRHIEIRDQALSNAQAKVVKLEEELKKKQVYVDKVEKMQQALVQLQAACEKREQLEHRLRTRLERELESLRIQQRQGNCQPTNVSEYNAAALMELLREKEERILALEADMTKWEQKYLEENVMRHFALDAAATVAAQRDTTVISHSPNTSYDTALEARIQKEEEEILMANKRCLDMEGRIKTLHAQIIEKDAMIKVLQQRSRKEPSKTEQLSCMRPAKSLMSISNAGSGLLSHSSTLTGSPIMEEKRDDKSWKGSLGILLGGDYRAEYVPSTPSPVPPSTPLLSAHSKTGSRDCSTQTERGTESNKTAAVAPISVPAPVAAAATAAAITATAATITTTMVAAAPVAVAAAAAPAAAAAPSPATAAATAAAVSPAAAGQIPAAASVASAAAVAPSAAAAAAVQVAPAAPAPVPAPALVPVPAPAAAQASAPAQTQAPTSAPAVAPTPAPTPTPAVAQAEVPASPATGPGPHRLSIPSLTCNPDKTDGPVFHSNTLERKTPIQILGQEPDAEMVEYLI
3xMBT/D355N UNC Heavy (3×MBT domain of L3MBTL1): 2.95 log base 2
3xMBT/D355N UNC Light (3×MBT domain of L3MBTL1): 2.44 log base 2

Relative to UNC0638 UNC Heavy (G9a and GLP): 0.17 log base 2
Relative to UNC0638 UNC Light (G9a and GLP): 0.16 log base 2
Relative to UNC0638 Average (G9a and GLP): 0.16 log base 2
B3: KHSRP (protein, UniProt Q92945 2-711, looked up)
Far upstream element-binding …: SDYSTGGPPPGPPPPAGGGGGAGGAGGGPPPGPPGAGDRGGGGPGGGGPGGGSAGGPSQPPGGGGPGIRKDAFADAVQRARQIAAKIGGDAATTVNNSTPDFGFGGQKRQLEDGDQPESKKLASQGDSISSQLGPIHPPPRTSMTEEYRVPDGMVGLIIGRGGEQINKIQQDSGCKVQISPDSGGLPERSVSLTGAPESVQKAKMMLDDIVSRGRGGPPGQFHDNANGGQNGTVQEIMIPAGKAGLVIGKGGETIKQLQERAGVKMILIQDGSQNTNVDKPLRIIGDPYKVQQACEMVMDILRERDQGGFGDRNEYGSRIGGGIDVPVPRHSVGVVIGRSGEMIKKIQNDAGVRIQFKQDDGTGPEKIAHIMGPPDRCEHAARIINDLLQSLRSGPPGPPGGPGMPPGGRGRGRGQGNWGPPGGEMTFSIPTHKCGLVIGRGGENVKAINQQTGAFVEISRQLPPNGDPNFKLFIIRGSPQQIDHAKQLIEEKIEGPLCPVGPGPGGPGPAGPMGPFNPGPFNQGPPGAPPHAGGPPPHQYPPQGWGNTYPQWQPPAPHDPSKAAAAAADPNAAWAAYYSHYYQQPPGPVPGPAPAPAAPPAQGEPPQPPPTGQSDYTKAWEEYYKKIGQQPQQPGAPPQQDYTKAWEEYYKKQAQVATGGGPGAPPGSQPDYSAAWAEYYRQQAAYYGQTPGPGGPQPPPTQQGQQQAQ
3xMBT/D355N UNC Heavy (3×MBT domain of L3MBTL1): 3.34 log base 2
3xMBT/D355N UNC Light (3×MBT domain of L3MBTL1): 3.18 log base 2
